{"source": "ChEMBL document CHEMBL1129705", "about": "“Synthesis of phosphinic acid transition state analogues for the reaction catalysed by kynureninase” (Bioorg Med Chem Lett, 1996)", "substrate": "Nc1ccccc1C(=O)C[C@H](N)C(=O)O", "details": "Pseudomonas fluorescens", "description": "Compound was evaluated for its binding affinity against kynureninase isolated from Pseudomonas fluorescence"}
{"protein": "Kynureninase (Homo sapiens), Q16719 (protein) MEPSSLELPADTVQRIAAELKCHPTDERVALHLDEEDKLRHFRECFYIPKIQDLPPVDLSLVNKDENAIYFLGNSLGLQPKMVKTYLEEELDKWAKIAAYGHEVGKRPWITGDESIVGLMKDIVGANEKEIALMNALTVNLHLLMLSFFKPTPKRYKILLEAKAFPSDHYAIESQLQLHGLNIEESMRMIKPREGEETLRIEDILEVIEKEGDSIAVILFSGVHFYTGQHFNIPAITKAGQAKGCYVGFDLAHAVGNVELYLHDWGVDFACWCSYKYLNAGAGGIAGAFIHEKHAHTIKPALVGWFGHELSTRFKMDNKLQLIPGVCGFRISNPPILLVCSLHASLEIFKQATMKALRKKSVLLTGYLEYLIKHNYGKDKAATKKPVVNIITPSHVEERGCQLTITFSVPNKDVFQELEKRGVVCDKRNPNGIRVAPVPLYNSFHDVYKFTNLLTSILDSAETKN", "values": [{"measurement": "Km", "value": 25.6, "unit": "µM"}]}
